From the domain aggregation screens of Martell et al. (2025)

Assay: soluble fraction after stress (log2 fold change); higher = more stays soluble; pooled small domains, quantitative proteomics
Conditions: stress: 75 degC
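Note: 20 min heating vs room temperature control held 20 min.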

Row | Sequence | soluble fraction (log2)
1 | HMTAQLAAQERTHALDMFMGGYKFSSKPAENGVRAEFEKKNFTLEDGKFLGGDEFMKSLMENDDYKGAFV | 0.406
2 | HMEPREEFTFADLRANGLNGTAAAAGRRAALGAALGIGYGNAKQFLRRLNHYGVTRSEWEAALADLDE | -0.752
3 | HMTPNATWQDDAQNLLRDLIQHQPVLVQISAAKRLRDQAEQISRITGGETVTREHVEAAGHALGMGVT | 0.209
4 | HMIEEIPYSQFMSMLEEGKIDKAEIYQDSIIFSTKPDEQGKAGYYSIAYMKDNVLADRLYDAGVEFTPII | 0.293
5 | HMSSPEAAEVQRLLKDGQHVQALKIIDESLARNPKDPQMRFRRGVALSMLDRKNEALAVFQKLVED | -0.182
6 | HMREYRITAEEGHPRIDVFLAGRPEIGLSRSRIQALIDEGQVTLNGAMPKARQAVNPGDVIVVRVPDPE | 0.0963
7 | HMGQPGNWTSYVFKNSDTEPAKPTSSGPIPSGWNDAPTGVGIWWMSKATIDASTGKAGSWSTPIRVTGED | -0.0861
8 | HMAPEKLVHELVGLSLRAGNLDLLAATLSAHKTVLSKESTAEYVKAGLAIEPNHLPLRVLAEQDLGWS | -1.17
9 | HMDSGLEQAKTAALENAELETSQVTFIKAELDYDDGKKVYEIEFVTSAMKYEYQVKADDFSILEMSKETIE | -0.755
10 | HMASDEVPGAGFKWREDVLLRVMEANGIDKSNRDDFVRHAVNFDDDDNNYLKKAEIEAAAAAWVESQSPA | -0.696
11 | HMASQEESVATYIQDYYRNPKTGESMVSDDMVEEFYKTHPEWEDQADGSKEGMEAVLDNFNEFFEINYG | 0.333
12 | HMKEGGGYGQLRLKEAAIQHAFDLQNALQFIAERGYQAHENTTLKEAANALNLKPIELLELLKSSQ | 0.0627
13 | HMLLSTHVVVAKEDVQIGTRLQPAMLQVVDWPSASPLKNPLTSIEQATDRVVNMPLVKGEPISMSKLAAKG | -0.296
14 | HMKPDWLSDGRLIPDEVMSHLRKIAVHAVEEMGYSPEDVIKILGLSRNTIYDWLKRFREHGYEGLDTKK | -0.957
15 | HMEKYIVNQEEQGKRLDIYVVNKSSELTRTAVQRLIEQEHILVNGRKQKASYKVLEGDIITIERV | 0.753
16 | HMKKYFPPKSRFNPNKYLLKDWMALGLSEKQSQSILNFIQRGIYSNSALEKIYVMPEEVFTLIKDSTYYEE | -1.38
17 | HMQSISLEEAKSAALDDAQLGIDEVEFLKTERNTDGDTSYYDIQFLVNGTIYKYQINTETGAILHVDYEA | 0.0632
18 | HMWMEKEELLWNDIIRGGVERGELREDTDIQEAAALFRQVFIGLAYQMSFSDGLDVGILRKRFHHIYGLLT | -0.173
19 | HMSSLEQVYPNPVSSILKLNSFIKNYKILNATGHEVLKGSGNTINVGKLPSGSYFLITSENYSIKFIK | -1.08

Row | Sequence | soluble fraction (log2)
20 | HMNEFAYLIKISPEHNNNRYYRMVAEGDNFRIEMGRIGASPVQMKRPMYLWNETYQKKLQEGYTDRTSYTS | -1.85
21 | HMGTIEEYSKYLINQYFDSLKKPMDAMTTSEKIEIVKSLDKKGIFNLKGSVGELAKRFNTSEKTIYRYLSS | -0.202
22 | HMVPEETKQFINQLNHGSLSIRMNAANNLEKLGLLAIPEIEAALPKAHGEAAFRLPRLLHALVLRETEYF | 0.185
23 | HMNGKTIEVPDITEKSIAEAQLILNQKKLRYNVVDSTRFDPAYLPFSVLTQEPEAGDEVKKNRTIYITLNP | -0.183
24 | HMSKKQEQALQSREKLLDAATALFAEHGYRDTSVQAIGEKAGVSRGSIFWHFGSKEGLLWAVVERAFTA | 0.303
25 | HMPSSQQVMRRLATVGPDKTLEELQRQHDAHLRKYGEFNDFRGERQQMRQEMERIKEAKQGTGPYAHLMG | 0.025
26 | HMYEENFSKIKNDISTIFKRHKISFTNNFISHLSSVFNTDSLTNKMELEKLDSFLINNKKVTENELLKFII | -0.0789
27 | HMDSNFNYELVGFRLDDMGLNSSVIVKRNNQEFVIQKGDLLENKYLLNSVTKKNINFSYLGKNYQI | -1.07
28 | HMSSAVKRALAELPENWRMIVYYRVVEGLSYAEIAKVLDIPDGSVMSGLHRGKKMLRGLLLEYAQQEGYD | -1.79
29 | HMSPFYILDEVEAALDDTNLGRLLEIYEELRENSQLLVITHQKRTMEVGDALYGVTMRGDGVSAVISQRLR | 0.306
30 | HMDRVTYPVSFNGKVRFQLELDAGMNAKEVETAALGHEKTAAQIEGKTIRKVIVVPGRIINIVV | -1.22
31 | HMTGESVPAPLSGTIFKILVAPGEQVEEGQTVIILEAMKMETEISAPRSGVVGAINIKEGDSVQVGQSLFT | 0.232
32 | HMDPVILDINSVKALLGISNKADFMAELSRLVVTEGDKKMIIPLAKEVGIDNVAVYKRNEIENISNYK | -0.129
33 | HMTSSQLYLIEEDMEGERLDAFLAEVIADLSRTAIKDLISNGRVLVDGQARKPSYRVKEGEQVLIHVPEAR | -0.392
34 | HMSTANISIEQAKEIALNHANLTSNQVIFSRTELDYDNGIQKYEVEFYYNNREYSYEINANTGDILGYEQ | -0.722
35 | HMYTVRDGDTVFGILNRFGVSLDELLSLNPELSNGLKAGMVLKIK | -0.542
36 | HMGDTLEIVVIYSNKQKAEEAVNNLKGKFEDLGYNFAIITVDTSKITQLAMESSIQYIEFPKSFYFSD | -4.25
37 | HMRKYEAVPASVVPAQIQEYVAKSNFPNQYIRKIERNKYTWEIELSNGLEIKFDRQFNVIGFD | -2.59
38 | HMGTTMLEVPNFVGEVFKEIDPEKYPNLRLVDSDYTYSNEYEAGKVISQDPVARTQVAEGSTVKLVIS | 0.319
